Laboratory results: patent publication US20180215833A1 (published 2018)

Target: T1, HGF (UniProt P14210 32-728, limits assumed)
T1 construct: also called hepatocyte growth factor
Experiment: SPR, HGF on CM-5 chip, 10 µg/ml c-Met chimera injected
Method: Surface Plasmon Resonance (SPR) was also used to investigate the binding of the mAbs to the different llama-human c-Met chimeras. 3000 RU of 36C4, 48A2 and HGF were coupled on a CM-5 chip in 10 mM NaAc (pH4.5). 60 μl of a 10 μg/ml solution of the different c-Met chimeras was run over the chip at a flow rate of 30 μl/min and the association for 2 min was evaluated. The chip was regenerated with 20 mM NaOH and 1 M NaCl.

T1 sequence (P14210 32-728 limits assumed): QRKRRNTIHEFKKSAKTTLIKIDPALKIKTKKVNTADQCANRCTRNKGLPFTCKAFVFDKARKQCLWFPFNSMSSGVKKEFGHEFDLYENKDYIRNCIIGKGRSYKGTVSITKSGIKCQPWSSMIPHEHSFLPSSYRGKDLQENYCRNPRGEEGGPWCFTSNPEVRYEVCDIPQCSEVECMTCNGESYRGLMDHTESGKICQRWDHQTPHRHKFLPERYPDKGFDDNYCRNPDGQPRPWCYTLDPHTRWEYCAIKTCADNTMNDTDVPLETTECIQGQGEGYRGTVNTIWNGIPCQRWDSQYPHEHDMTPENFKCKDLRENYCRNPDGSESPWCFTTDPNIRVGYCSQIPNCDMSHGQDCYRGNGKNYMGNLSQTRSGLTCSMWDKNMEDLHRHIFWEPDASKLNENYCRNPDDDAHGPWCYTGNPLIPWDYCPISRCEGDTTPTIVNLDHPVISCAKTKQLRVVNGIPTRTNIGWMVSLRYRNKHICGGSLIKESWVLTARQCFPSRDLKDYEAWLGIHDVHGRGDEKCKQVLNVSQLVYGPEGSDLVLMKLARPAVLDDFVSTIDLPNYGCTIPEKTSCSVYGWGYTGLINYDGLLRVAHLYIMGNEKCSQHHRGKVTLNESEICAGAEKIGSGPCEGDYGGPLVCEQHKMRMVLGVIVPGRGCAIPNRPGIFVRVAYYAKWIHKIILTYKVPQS

B1: LS1 (aa1-98) (receptor)
chain: ECKEALVKSRMNVNMQYQLPNFTAETRIQNVVLHKHHIYLGAVNYIYVLNDKDLQKVAEYKTGPVLEHPHCFPCEDCSHKANLSDGVWKDNINMALLVDTYYDDQLISCGSVNRGTCQRHVFPHNHTADIQSEVHCIFSPQIEEPSQCPDCVVSALGAKVLSSVKDRFINFFVGNTINSSYFPDHPLHSISVRRLKETKDGFMFLTDQSYIDVLPEFRDSYPIKYVHAFESNNFIYFLTVQRETLDAQTFHTRIIRFCSINSGLHSYMEMPLECILTEKRKKRSTKKEVFNILQAAYVSKPGAQLARQIGASLNDDILFGVFAQSKPDSAEPMDRSAMCAFPIKYVNDFFNKIVNKNNVRCLQHFYGPNHEHCFNRTLLRNSSGCEARRDEYRTEFTTALQRVDLFMGQFSEVLLTSISTFIKGDLTIANLGTSEGRFMQVVVSRSGPSTPHVNFLLDSHPVSPEVIVEHTLNQNGYTLVITGKKITKIPLNGLGCRHFQSCSQCLSAPPFVQCGWCHDKCVRSEECLSGTWTQQICLPAIYKVFPNSAPLEGGTRLTICGWDFGFRRNNKFDLKKTRVLLGNESCTLTLSESTMNTLKCTVGPAMNKHFNMSIIISNGHGTTQYSTFSYVDPVITSISPKYGPMAGGTLLTLTGNYLNSGNSRHISIGGKTCTLKSVSNSILECYTPAQTISTEFAVKLKIDLANRETSIFSYREDPIVYEIHPTKSFISGGSTITGVGKNLNSVSVPRMVINVHEAGRNFTVACQHRSNSEIICCTTPSLQQLNLQLPLKTKAFFMLDGILSKYFDLIYVHNPVFKPFEKPVMISMGNENVLEIKGNDIDPEAVKGEVLKVGNKSCENIHLHSEAVLCTVPNDLLKLNSELNIEWKQAISSTVLGKVIVQPDQNFT
notes: Ranges count on mature human c-Met
- binding result: binds
